Data on 36 molecules can be found in US20220040297A1 (Chugai, published 2022).

By Kd is commonly meant a measure of binding affinity in units of concentration. Lower therefore signals higher affinity.

Substitutions are numbered along the chain they refer to. Numbers in names are those of the source.

B1: GLS3000 F55K (antibody, IgG1, name in Kabat numbering, V domains shown)
VH: QVQLVESGGGVVQPGRSLRLSCAASGFTFSNAWMHWVRQAPGKGLEWVAQIKAKSNNYATYYAESVKGRFTISRDDSKNSLYLQMNSLKTEDTAVYYCRYVHYGAYYGVDAWGQGTTVTVSS
VL: DIVMTQSPLSLPVTPGEPASISCRSSQSLVHSNRNTYLHWYQQKPGQAPRLLIYKVSNRKSGVPDRFSGSGSGTDFTLKISRVEAEDVGVYYCGQGTQVPYTFGQGTKLEIK
B2: GLS3000 V27cE (antibody, IgG1, name in Kabat numbering, V domains shown)
VH: B1 VH
VL: B1 VL with V30E, K60F
B3: GLS3000 T92Y (antibody, IgG1, name in Kabat numbering, V domains shown)
VH: B1 VH
VL: B1 VL with K60F, T97Y
B4: GLS3000 G89W (antibody, IgG1, name in Kabat numbering, V domains shown)
VH: B1 VH
VL: B1 VL with K60F, G94W
B5: GLS3000 Q90Y (antibody, IgG1, name in Kabat numbering, V domains shown)
VH: B1 VH
VL: B1 VL with K60F, Q95Y
B6: GLS3000 R45Q (antibody, IgG1, name in Kabat numbering, V domains shown)
VH: B1 VH
VL: B1 VL with R50Q, K60F
B7: GLS3000 S27eE (antibody, IgG1, name in Kabat numbering, V domains shown)
VH: B1 VH
VL: B1 VL with S32E, K60F
B8: GLS3000 S27eL (antibody, IgG1, name in Kabat numbering, V domains shown)
VH: B1 VH
VL: B1 VL with S32L, K60F
B9: GLS3000 Y96F (antibody, IgG1, name in Kabat numbering, V domains shown)
VH: B1 VH
VL: B1 VL with K60F, Y101F
B10: GLS3000 L33P (antibody, IgG1, name in Kabat numbering, V domains shown)
VH: B1 VH
VL: B1 VL with L38P, K60F
B11: GLS3000 H34E (antibody, IgG1, name in Kabat numbering, V domains shown)
VH: B1 VH
VL: B1 VL with H39E, K60F
B12: GLS3000 G89A (antibody, IgG1, name in Kabat numbering, V domains shown)
VH: B1 VH
VL: B1 VL with K60F, G94A
B13: GLS3000 R45D (antibody, IgG1, name in Kabat numbering, V domains shown)
VH: B1 VH
VL: B1 VL with R50D, K60F
B14: GLS3000 H34R (antibody, IgG1, name in Kabat numbering, V domains shown)
VH: B1 VH
VL: B1 VL with H39R, K60F
B15: GLS3000 P95E (antibody, IgG1, name in Kabat numbering, V domains shown)
VH: B1 VH
VL: B1 VL with K60F, P100E
B16: GLS3000 R45E (antibody, IgG1, name in Kabat numbering, V domains shown)
VH: B1 VH
VL: B1 VL with R50E, K60F
B17: GLS3000 G89Y (antibody, IgG1, name in Kabat numbering, V domains shown)
VH: B1 VH
VL: B1 VL with K60F, G94Y
B18: GLS3000 N28D (antibody, IgG1, name in Kabat numbering, V domains shown)
VH: B1 VH
VL: B1 VL with N33D, K60F
B19: GLS3000 H34M (antibody, IgG1, name in Kabat numbering, V domains shown)
VH: B1 VH
VL: B1 VL with H39M, K60F
B20: GLS3000 S25E (antibody, IgG1, name in Kabat numbering, V domains shown)
VH: B1 VH
VL: B1 VL with S25E, K60F
B21: GLS3000 L27bE (antibody, IgG1, name in Kabat numbering, V domains shown)
VH: B1 VH
VL: B1 VL with L29E, K60F
B22: GLS3000 R29V (antibody, IgG1, name in Kabat numbering, V domains shown)
VH: B1 VH
VL: B1 VL with R34V, K60F
B23: GLS3000 G91S (antibody, IgG1, name in Kabat numbering, V domains shown)
VH: B1 VH
VL: B1 VL with K60F, G96S
B24: GLS3000 N30Y (antibody, IgG1, name in Kabat numbering, V domains shown)
VH: B1 VH
VL: B1 VL with N35Y, K60F
B25: CE115HA000 Y100aG (antibody, name in Kabat numbering, V domains shown)
VH: B1 VH with Y107G
VL: B1 VL with K60F
B26: CE115HA000 Y100aH (antibody, name in Kabat numbering, V domains shown)
VH: B1 VH with Y107H
VL: B1 VL with K60F
B27: CE115HA000 Y100W (antibody, name in Kabat numbering, V domains shown)
VH: B1 VH with Y106W
VL: B1 VL with K60F
B28: CE115HA000 Y100aS (antibody, name in Kabat numbering, V domains shown)
VH: B1 VH with Y107S
VL: B1 VL with K60F
B29: CE115HA000 Y100V (antibody, name in Kabat numbering, V domains shown)
VH: B1 VH with Y106V
VL: B1 VL with K60F
B30: CE115HA000 Y100aF (antibody, name in Kabat numbering, V domains shown)
VH: B1 VH with Y107F
VL: B1 VL with K60F
B31: CE115HA000 Y100Q (antibody, name in Kabat numbering, V domains shown)
VH: B1 VH with Y106Q
VL: B1 VL with K60F
B32: CE115HA000 Y100aQ (antibody, name in Kabat numbering, V domains shown)
VH: B1 VH with Y107Q
VL: B1 VL with K60F
B33: NNS6f63 (antibody)
heavy: QVQLVESGGGLVQPGRSLRLSCAASGFTFSNAWMHWVRQAPGKGLEWVAQIKDKSNNYATYYAESVKGRFTISRDDSKNSIYLQMNSLKTEDTAVYYCRYVHYAAGGGGWVYYGVDAWGQGTTVTVSSASTKGPSVFPLAPSSKSTSGGTAALGCLVKDYFPEPVTVSWNSGALTSGVHTFPAVLQSSGLYSLSSVVTVPSSSLGTQTYICNVNHKPSNTKVDKKVEPKSCDKTHTCPPCPAPEAAGGPSVFLFPPKPKDTLMISRTPEVTCVVVDVSHEDPEVKFNWYVDGVEVHNAKTKPREEQYASTYRVVSVLTVLHQDWLNGKEYKCKVSNKALPAPIEKTISKAKGQPREPQVYTLPPSRCELTKNQVSLSCAVKGFYPSDIAVEWESNGQPENNYKTTPPVLDSDGSFFLVSKLTVDKSRWQQGNVFSCSVMHEALHNHYTQKSLSLSPDYKDDDDK
chain: EPKSSDKTHTCPPCPAPELLGGPSVFLFPPKPKDTLMISRTPEVTCVVVDVSHEDPEVKFNWYVDGVEVHNAKTKPREEQYNSTYRVVSVLTVLHQDWLNGKEYKCKVSNKALPAPIEKTISKAKGQPREPQVCTLPPSRDELTKNQVSLWCLVKGFYPSDIAVEWESNGQPENNYKTTPPVLDSDGSFFLYSKLTVDKSRWQQGNVFSCSVMHEALHNRYTQKSLSLSP
light: DIVMTQSPLSLPVTPGEPASISCRSSQSLVHSNRNTYLHWYQQKPGQAPRLLIYKVSNRFSGVPDRFSGSGSGTDFTLKISRVEAEDVGVYYCGQGTQVPYTFGQGTKLEIKRTVAAPSVFIFPPSDEQLKSGTASVVCLLNNFYPREAKVQWKVDNALQSGNSQESVTEQDSKDSTYSLSSTLTLSKADYEKHKVYACEVTHQGLSSPVTKSFNRGEC
notes: one-arm antibody
B34: NNS6f27 (antibody)
heavy: B33 heavy with G106V, G107W, G109S, W110V, V111W
chain: B33 chain
light: B33 light
notes: one-arm antibody
B35: NNS6f17 (antibody)
heavy: B33 heavy with G106W, G108E, W110V
chain: B33 chain
light: B33 light
notes: one-arm antibody
B36: NNS6f29 (antibody)
heavy: B33 heavy with G106I, G107Y, G108Y, G109P, W110T, V111N
chain: B33 chain
light: B33 light
notes: one-arm antibody
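Wherever ratio of amounts bound vs CE115HA000 is given: biacore SPR with antibody variants flowed as analyte over amine-coupled CD3ε homodimer on a CM chip, bound amount of each single-residue H chain variant over that of parent.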

The first assay deals with T1, CD3ε homodimer protein (human, UniProt P07766 23-126, limits assumed).
T1 construct: Whole entry named for the human CD3 epsilon chain
Description: SPR, CD3e immobilized.
T1 sequence (P07766 23-126 limits assumed): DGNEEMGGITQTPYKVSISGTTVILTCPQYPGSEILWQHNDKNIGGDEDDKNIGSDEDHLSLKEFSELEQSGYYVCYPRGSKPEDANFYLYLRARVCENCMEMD
Description: Each one-amino acid altered form constructed, expressed, and purified in the paragraph (6-2) was evaluated using Biacore T200 (GE Healthcare Japan Corp.). An appropriate amount of CD3ε homodimer protein was immobilized onto Sensor chip CM4 (GE Healthcare Japan Corp.) by the amine coupling method. Then, the antibody having an appropriate concentration was injected thereto as an analyte and allowed to interact with the CD3ε homodimer protein on the sensor chip. Then, the sensor chip was regenerated by the injection of 10 mmol/L glycine-HCl (pH 1.5). The assay was conducted at 25° C., and HBS-EP+ (GE Healthcare Japan Corp.) was used as a running buffer. […] Each parameter was calculated using Biacore T200 Evaluation Software (GE Healthcare Japan Corp.).
Specifically, when the amount of the GLS3000-containing antibody bound was defined as X and the amount of the L chain one-amino acid altered form bound was defined as Y, a value of Z (ratio of amounts bound)=Y/X was used.
In the case of B1, the “KD ratio to GLS3000” value is 1.22.
Turning to B2, the “KD ratio to GLS3000” value came out at 1.3.
Take B3: the “KD ratio to GLS3000” value turned out to be 2.53.
Still for that read-out and setting: to B4 belongs 2.3.
On the same count and under the same terms, to B5 belongs 36.3; to B6, 0.98.
On the same count and under the same terms, to B7 belongs 1.84; to B8, 1.66.
On to B9, for which the “KD ratio to GLS3000” value amounted to 0.96.
Still for that read-out and setting: to B10 belongs 12.7.
Same read-out and setting: for B11 the value was 5.03; for B12, 1.3.
On the same count and under the same terms, to B13 belongs 0.86; to B14, 85800; to B15, 1.61.
With B16, the “KD ratio to GLS3000” value is 1.01.
Still for that read-out and setting: to B17 belongs 1.32; to B18, 4460.
Same read-out and setting: to B19 belongs 3.36; to B20, 6.54.
The same measure, in the same setting: for B21 the value was 26.8.
For B22, the “KD ratio to GLS3000” value stood at 3.25.
The same measure, in the same setting: for B23 the value was 7210.
The same measure, in the same setting: to B24 belongs 1.01.

The next assay deals with T2, CD3ε homodimer protein (human, UniProt P07766 23-126, limits assumed, sulfo-tag or biotin label in some ECL assays).
T2 construct: also called human CD3ε homodimer protein; CD3 (CD3ε)
T2 sequence (P07766 23-126 limits assumed): as above
The assay can be described thus: SPR, CD3ε homodimer on chip. (SPR reads the build-up and loss of mass on a sensor chip optically.)
As for B25, the “ratio of amounts bound vs CE115HA000” value amounted to 1.23.
Still for that read-out and setting: for B26 the value was 0.9; for B27, 1.03.
Same read-out and setting: to B28 belongs 0.64.
For B29, the “ratio of amounts bound vs CE115HA000” value worked out at 0.8.
On the same count and under the same terms, to B30 belongs 0.87; to B31, 0.8; to B32, 0.56.

Another assay deals with T3, CD3ε homodimer protein (human, UniProt P07766 23-126, limits assumed).
T3 construct: also called human CD3ε homodimer protein; CD3e homodimer
The assay can be described thus: SPR (Biacore T200, 25°C); CD3ε homodimer immobilized on CM4, one-arm antibody as analyte.
T3 sequence (P07766 23-126 limits assumed): as above
B33 yielded a dissociation constant Kd of 69 nM.
Same read-out and setting: to B34 belongs 38 nM.
The same measure, in the same setting: for B35 the value was 74 nM.
The same measure, in the same setting: to B36 belongs 90 nM.
